Measurements reported in article PMC9190123 (Molecular pharmaceutics, 2009).
Read-outs that look alike come from different tables or passages of the source. Numbered stars: 1 amine (or outer) side, 2 acyl side, 3 side chain; on linkers, the order of the positions; unused ones are H or OH. Square brackets hold non-standard residues; d marks the D form. Side chains are listed from the residue outwards. Peptide text beside a SMILES is read from it. * marks the point of attachment. X1 = N[C@@H](CN*)C(=O)N[C@@H](CC(=O)O)C(=O)N[C@@H](CS)C(=O)O; γGlu = O=C(O)[C@H](CCC(=O)[*:2])N[*:1]; PEG6 = NCCOCCOCCOCCOCCOCCOCCC(=O)O; Dap = NC[C@H](N)C(=O)O; Aoc = NCCCCCCCC(=O)O; CO = O=C([*:1])[*:2]

Tests used:
[1] = molecular target: PSMA (PSMA-expressing LNCaP cells) (Homo sapiens, UniProt Q04609); experiment: LNCaP cell binding study; conditions: for affinity for PSMA / LNCaP cells (in words): LNCaP cells in culture; for Kd: PSMA-positive LNCaP cells in culture, 1 h at 37 °C; for competitive inhibition of binding by excess PMPA: LNCaP cells, 100-fold excess PMPA
PSMA (PSMA-expressing LNCaP cells), sequence (Q04609 whole entry): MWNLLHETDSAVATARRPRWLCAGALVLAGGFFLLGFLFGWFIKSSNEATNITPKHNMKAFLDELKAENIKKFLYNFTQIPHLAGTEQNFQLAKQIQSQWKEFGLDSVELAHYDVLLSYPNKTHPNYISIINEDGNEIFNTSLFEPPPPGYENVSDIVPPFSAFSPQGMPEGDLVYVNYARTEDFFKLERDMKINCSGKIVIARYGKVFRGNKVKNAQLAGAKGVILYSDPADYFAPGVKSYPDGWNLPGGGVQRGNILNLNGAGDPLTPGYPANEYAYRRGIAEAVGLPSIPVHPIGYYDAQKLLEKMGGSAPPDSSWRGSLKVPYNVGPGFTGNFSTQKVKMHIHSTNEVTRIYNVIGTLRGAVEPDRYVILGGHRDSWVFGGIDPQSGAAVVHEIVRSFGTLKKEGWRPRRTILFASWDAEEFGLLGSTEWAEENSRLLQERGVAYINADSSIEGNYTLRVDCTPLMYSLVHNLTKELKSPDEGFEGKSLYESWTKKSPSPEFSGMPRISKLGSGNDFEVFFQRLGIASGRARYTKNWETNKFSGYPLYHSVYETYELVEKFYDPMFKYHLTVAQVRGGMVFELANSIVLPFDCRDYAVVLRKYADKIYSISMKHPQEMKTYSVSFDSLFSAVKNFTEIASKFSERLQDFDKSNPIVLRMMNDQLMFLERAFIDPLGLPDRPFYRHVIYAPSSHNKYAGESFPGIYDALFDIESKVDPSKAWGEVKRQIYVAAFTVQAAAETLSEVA

LNCaP tumor xenografts = type: in vivo, athymic nu/nu mice; conditions: for tumor-specific accumulation by whole-body radioimaging: 4 h after ip injection; for accumulation in PSMA-positive tumors by γ-counting (in words): tissue biodistribution, 4 h; for Tumor:Tissue blood / Tumor:Tissue heart / Tumor:Tissue liver / Tumor:Tissue lung / Tumor:Tissue muscle / Tumor:Tissue skin / Tumor:Tissue spleen: mouse, in vivo, ip
[2] = type: in vivo, athymic nu/nu mice; conditions: mouse, ip
[3] = tested on: PSMA-negative human tumor xenografts; conditions: two PSMA-negative human tumor xenografts; cited from earlier work
[4] = male, athymic nu/nu, in vivo, 67 nmol, total radioactivity, tumor uptake, average % ID/g tissue

N[C@@H](CNC(=O)[C@H](Cc1ccccc1)NC(=O)CCOCCOCCOCCOCCOCCOCCNC(=O)CC[C@H](NC(=O)N[C@@H](CCC(=O)O)C(=O)O)C(=O)O)C(=O)N[C@@H](CC(=O)O)C(=O)N[C@@H](CS)C(=O)O [compound 8] (H-[Dap]([Phe-PEG6-γGlu-CO-Glu])-Asp-Cys-OH)
affinity for PSMA / LNCaP cells (in words) [1]: weak affinity | Kd [1]: 338 nM | tumor-specific accumulation by whole-body radioimaging (LNCaP tumor xenografts; radioimaging): not observed | accumulation in PSMA-positive tumors by γ-counting (in words) (LNCaP tumor xenografts): did not accumulate

N[C@@H](CNC(=O)[C@H](CCC(=O)O)NC(=O)[C@H](Cc1ccccc1)NC(=O)CCCCCCCNC(=O)CC[C@H](NC(=O)N[C@@H](CCC(=O)O)C(=O)O)C(=O)O)C(=O)N[C@@H](CC(=O)O)C(=O)N[C@@H](CS)C(=O)O [compound 6] (H-[Dap]([Glu-Phe-Aoc-γGlu-CO-Glu])-Asp-Cys-OH)
affinity for PSMA / LNCaP cells (in words) [1]: somewhat lower affinities | competitive inhibition of binding by excess PMPA [1]: nearly quantitative competition | Kd [1]: 31 nM | tissue uptake at 4 h [2, 4]: 9.8 ± 2.4 %ID/g | tissue uptake at 4 h ([2]; in vivo, % ID/g kidney): 42.9 %ID/g | tumor-specific accumulation by whole-body radioimaging (LNCaP tumor xenografts; radioimaging): accumulated predominantly in the PSMA-positive LNCaP tumors | Tumor:Tissue blood (LNCaP tumor xenografts): 51.4 | Tumor:Tissue heart (LNCaP tumor xenografts): 93.3 | Tumor:Tissue liver (LNCaP tumor xenografts): 11.6 | Tumor:Tissue lung (LNCaP tumor xenografts): 18.9 | Tumor:Tissue muscle (LNCaP tumor xenografts): 74.2 | Tumor:Tissue skin (LNCaP tumor xenografts): 28.7 | Tumor:Tissue spleen (LNCaP tumor xenografts): 4.5

N[C@@H](CNC(=O)[C@H](Cc1ccccc1)NC(=O)[C@H](CCC(=O)O)NC(=O)CC[C@H](NC(=O)N[C@@H](CCC(=O)O)C(=O)O)C(=O)O)C(=O)N[C@@H](CC(=O)O)C(=O)N[C@@H](CS)C(=O)O [compound 4] (H-[Dap]([Phe-Glu-γGlu-CO-Glu])-Asp-Cys-OH)
affinity for PSMA / LNCaP cells (in words) [1]: somewhat lower affinities | competitive inhibition of binding by excess PMPA [1]: nearly quantitative competition | Kd [1]: 60 nM | tissue uptake at 4 h [2, 4]: 9.8 ± 2.4 %ID/g | tissue uptake at 4 h ([2]; in vivo, % ID/g kidney): 3.4 %ID/g | tumor-specific accumulation by whole-body radioimaging (LNCaP tumor xenografts; radioimaging): accumulated predominantly in the PSMA-positive LNCaP tumors | Tumor:Tissue blood (LNCaP tumor xenografts): 91.7 | Tumor:Tissue heart (LNCaP tumor xenografts): 112.2 | Tumor:Tissue liver (LNCaP tumor xenografts): 62.9 | Tumor:Tissue lung (LNCaP tumor xenografts): 101.8 | Tumor:Tissue muscle (LNCaP tumor xenografts): 115.1 | Tumor:Tissue skin (LNCaP tumor xenografts): 92.3 | Tumor:Tissue spleen (LNCaP tumor xenografts): 66.7

N[C@@H](CNC(=O)CC[C@H](NC(=O)N[C@@H](CCC(=O)O)C(=O)O)C(=O)O)C(=O)N[C@@H](CC(=O)O)C(=O)N[C@@H](CS)C(=O)O [compound 3] (H-[Dap]([γGlu-CO-Glu])-Asp-Cys-OH)
affinity for PSMA / LNCaP cells (in words) [1]: weak affinity | Kd [1]: 176 nM | tumor-specific accumulation by whole-body radioimaging (LNCaP tumor xenografts; radioimaging): not observed | accumulation in PSMA-positive tumors by γ-counting (in words) (LNCaP tumor xenografts): did not accumulate

N[C@@H](CNC(=O)[C@H](Cc1ccccc1)NC(=O)[C@H](Cc1ccccc1)NC(=O)CNC(=O)[C@H](CCC(=O)O)NC(=O)[C@H](Cc1ccccc1)NC(=O)CC[C@H](NC(=O)N[C@@H](CCC(=O)O)C(=O)O)C(=O)O)C(=O)N[C@@H](CC(=O)O)C(=O)N[C@@H](CS)C(=O)O [compound 7] ({Glu-CO-γGlu}-FEGFF-X1)
tumor-specific accumulation by whole-body radioimaging (LNCaP tumor xenografts; radioimaging): accumulated predominantly in the PSMA-positive LNCaP tumors

N[C@@H](CNC(=O)[C@H](Cc1ccccc1)NC(=O)[C@H](Cc1ccccc1)NC(=O)CCCCCCCNC(=O)CC[C@H](NC(=O)N[C@@H](CCC(=O)O)C(=O)O)C(=O)O)C(=O)N[C@@H](CC(=O)O)C(=O)N[C@@H](CS)C(=O)O [compound 5] (H-[Dap]([Phe-Phe-Aoc-γGlu-CO-Glu])-Asp-Cys-OH)
internalization by LNCaP cells ([1]; 1 h at 4 °C vs 37 °C): internalization of the DUPA conjugate at physiological temperature | affinity for PSMA / LNCaP cells (in words) [1]: most avid interaction | competitive inhibition of binding by excess PMPA [1]: nearly quantitative competition | Kd [1]: 13.8 ± 3.9 nM | tissue uptake at 4 h [2, 4]: 9.8 ± 2.4 %ID/g | tissue uptake at 4 h ([2]; kidney, 67 nmol, % ID/g kidney, kidney, 4 h after ip injection): 37.8 %ID/g | tumor-specific accumulation by whole-body radioimaging (LNCaP tumor xenografts; radioimaging): accumulated predominantly in the PSMA-positive LNCaP tumors | LNCaP tumor uptake with coinjection of excess PMPA (LNCaP tumor xenografts; competition with 100-fold excess PMPA, radioimaging): eliminated LNCaP tumor uptake | Tumor:Tissue blood (LNCaP tumor xenografts): 36.4 | Tumor:Tissue heart (LNCaP tumor xenografts): 80.9 | Tumor:Tissue liver (LNCaP tumor xenografts): 20.2 | Tumor:Tissue lung (LNCaP tumor xenografts): 35.2 | Tumor:Tissue muscle (LNCaP tumor xenografts): 78.9 | Tumor:Tissue skin (LNCaP tumor xenografts): 30.7 | Tumor:Tissue spleen (LNCaP tumor xenografts): 18.4 | uptake in PSMA-negative tumors [3]: no uptake
